# Assay: yeast display, Sf9 membrane polyspecificity reagent, FACS + sequencing; frameworks hold sequencing errors
# Procedure, shortened: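 Synthetic nanobody libraries on Saccharomyces cerevisiae BJ5465 were galactose-induced for 36–48 hours, stained 1 hour at 4 °C with 10% biotinylated, detergent-solubilized Sf9 membrane reagent and enriched on streptavidin microbeads. FACS then separated cells into low and high (top ~1%) gates by anti-HA (expression) and streptavidin (reagent binding) fluorescence. Genes were colony-PCR amplified, MiSeq 2 × 250 sequenced and CDR-length filtered. A clone's polyreactivity label is that of its gate of origin.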
row,Sequence,polyreactivity (PSR sort gate)
1,QVQLVESGGGLVQAGGSLRLSCAASGFIFLGNAMGWYRQAPGKERELVAAISSGGSTYADSVKGRFTISRDNAKNTVYLQMNSLKPEDTAVYYCAVDRAFRAQNYHEYDYWGQGTQVNVSS,low polyreactivity
2,QVQLVESGGGLVQAGGSLRLSCAASGFIFLGYAMGWYRPAPGKERELVATITWRGGSTYYADSVKGRFTISRDNAKNTVYLQMNSLKPEDTAVYYCAATRGWLHSFARDDHDYWGQGTQVTVSS,high polyreactivity
3,QVQLVESGGGLVQAGGSLRLSCAASGFIFLGYAMGWYRQAPGKEREFVAGITITGGSTYYADSVKGRFTISRDNAKNTVYLQMNSLKPEDTAVYYCNAESNLYRRRRNYWGQGTQVTVSS,low polyreactivity
4,QVQLVESGGGLVQAGGSLRLSCAASGFIFLLYDMGWYRQAPGKERELVAAITSDGTTNYADSVKGRFTISRDNAKNTVYLQMNSLKPEDTAVYYCAADGFTRWGRYDYWGQGTQVTVSS,high polyreactivity
5,QVQLVESGGGLVQAGGSLRLSCAASGFIFLPYAKGWYRQAPGKERELVAAITRGGRTYYADSVKGRFTISRDNAKNTVYLQMNSLKPEDTAVYYCAATTYLVWGYNYWGQGTQVTVSS,low polyreactivity
6,QVQLVESGGGLVQAGGSLRLSCAASGFIFLPYAMGWARQAPGKERELVAAITRGGRTYYADSVKGRFTISRDNAKNTVYLQMNSLKPEDTAVYYCAATTYLVWGYNYWGQGTQVTVSS,low polyreactivity
7,QVQLVESGGGLVQAGGSLRLSCAASGFIFLPYAMGWYRQAPGKERELVAAITRGGRTYYADSVKGRFTISRDNAKNTVYLKMNSLKPEDTAVYYCAATTYLVWGYNYWGQGTQVTVSS,low polyreactivity
8,QVQLVESGGGLVQAGGSLRLSCAASGFIFLSYGMGWYRPAPGKERELVASITSDGGSTYYADSVKGRFTISRDNAKNTVYLQMNSLKPEDTAVYYCAADSVSPWYYGWYYRYRGYGYWGQGTQVTVSS,low polyreactivity
9,QVQLVESGGGLVQAGGSLRLSCAASGFIFLVNAMGWYRRGPGTERELVAAISKSTGGTYYADSVKGRFTISRDNAKNTVYLQMNSLKPEDTAVYYCAADEVYPVQRDMDYWGQGTQVTVSS,low polyreactivity
10,QVQLVESGGGLVQAGGSLRLSCAASGFIFLVYAMGWYRQAPGKERELVAAISASGGRTYYADSVKGRFTISRDNAKNTVYLQMNSLKPEYTAVYYCARLLPTPGKPILDYWGQGTQVTVSS,low polyreactivity
11,QVQLVESGGGLVQAGGSLRLSCAASGFIFNAYAMGWYRQAPGKERELVAAVSWSGARTYYADSVKGRFTISRDNAKNTVYLQMNSLKPEDTAVYYCAAEYSGVHYQQAYDYSEGLDYWGQGTQVTVSS,low polyreactivity
12,QVQLVESGGGLVQAGGSLRLSCAASGFIFNFYAMGLYRQAPGKERELVAAISRSGGGTYYADSVKGRFTISRDNAKYTVYFQMNSLKPEDTAVYSCNVDKYRIVGFHSPYDYWGQGTQVTVSS,high polyreactivity
13,QVQLVESGGGLVQAGGSLRLSCAASGFIFNHYAMGWYRQAPGKEREFVAAISWSGTRTYYADSVKGRFTISRDNAKNTVYLQMNSLKPEDTSVYYCAADVWGPYDYWGQGTQLTVSS,low polyreactivity
14,QVQLVESGGGLVQAGGSLRLSCAASGFIFNKNAMGWYRQAPGKERELVAAITFGGGTTYYADSVKGRFTISRDNAKNTVYLQMNSLKPEDTAVYYCNAVYYWYKGDYWGQGTQVTVSS,high polyreactivity
15,QVQLVESGGGLVQAGGSLRLSCAASGFIFNRYAMGWYRQAPGKERELVAGITSSGGSTYYADSVKGRFTISRDNAKNTVYLQMNSLKPEDTAVYYCNADSWLYRFFGYDYWGQGTQVTVSS,low polyreactivity
16,QVQLVESGGGLVQAGGSLRLSCAASGFIFNTNAMGWYRQAPGKERELVAGISRSGVRTYYADSVKGRFTISRDNAKNTVFLQMNSLKPEDTAVYYCAATSLPRYYYWGQGTQVTVSS,low polyreactivity
17,QVQLVESGGGLVQAGGSLRLSCAASGFIFPENDMGWYRQAPGKERELVATISGDTSTNYADSVKGRFTISRDNAKHTVYLQMNSLKPEDTAVYYCNRKLKGRKSHKLDYDYWGQGTQVTVSS,low polyreactivity
18,QVQLVESGGGLVQAGGSLRLSCAASGFIFPKNAMGWYRQAPGKERELVAAISKRGGSTYYADSVKGRFTISRDNAKNTVYLQMNSLKPEDTAVYYCADGYRTRRGLGYYYWGQGTQVTVSS,high polyreactivity
19,QVQLVESGGGLVQAGGSLRLSCAASGFIFPLYTMGWYRQAPGKEREVVAAISWIGGRTYYADSVKGRFTISRDFAKNTVYLQMISLKPEDTAVYFCGKDPSGGGYGYDYWGQGTQVTVTS,low polyreactivity
20,QVQLVESGGGLVQAGGSLRLSCAASGFIFPNYAMGWYRQAPGKVRELVAAISVRGGNTYYADSVKGRFTISRDNAKNTVYLQMNSLKPEDTAVYYCNAVLRSGYFPEYYYWGQVTQVTVSS,high polyreactivity
21,QVQLVESGGGLVQAGGSLRLSCAASGFIFPQYAMGWYRQAPGKERELVAAISWSGTRTYYADSVKGRFTISRDNAKNTVYLQMNSLKPEDTAVYYCAARIDRQYRWTGFGYWGQGTQVTVSS,high polyreactivity
22,QVQLVESGGGLVQAGGSLRLSCAASGFIFPRYAMGWYRQAPGKERELVAAISYSGGSTYYADSVKGRFTISRDNAKNTVYLQMNSLKPEDTAVYYCAARLFKDSWMDYWGQGTQVTVSS,high polyreactivity

row,Sequence,polyreactivity (PSR sort gate)
1,QVQLVESGGGLVQAGGSLRLSCAASGFIFPRYAMGWYRQAPGQERELVAAISKSGGRTYYADSGKGRFTISRDYAKNTFYLQMNSLNPEDTAVYYCAAGRISRFSRYYYWGQGTQVTVSS,high polyreactivity
2,QVQLVESGGGLVQAGGSLRLSCAASGFIFPRYAMGWYRQAPGTERELVAAISRGGRTNYADSVKGRFTISRDNAKNTVYFQMNSLKPEDTAVYYCAKKYYLSGSRADDSWGQGTQVTVSS,high polyreactivity
3,QVQLVESGGGLVQAGGSLRLSCAASGFIFPTYAMGWYRQATGKERELVAAISYRGGITSYADSVKGRFTISRDNAKNTVYLQMNSLKPEDSAVYYCAARGAWGYEYWGQGTQVTVSS,low polyreactivity
4,QVQLVESGGGLVQAGGSLRLSCAASGFIFPVNAMGWYRQAPGKERELVAGISRGGRTNYADSVKGRFTISRDNAKYSVYLQMNSLKPEDTAVYYCAAESYRAYKYDSWGQGTQVTVSS,low polyreactivity
5,QVQLVESGGGLVQAGGSLRLSCAASGFIFPVYAMGWYRQAPGKERELVAAIRRGGSTNYADSVKGRFTISRDNAKNTVYLQMNSLKPEDTAVYYCAVEYQSPDDYWGQGTQVTVSS,low polyreactivity
6,QVQLVESGGGLVQAGGSLRLSCAASGFIFPWNAMGWYRQAPGKERELVAAISFSGGSTYYADSVKGRFTISRDNAKNTVYLQMNSLKPEDTAVYYCAKRTWDLRRTRHYYWGQGTQVTVSS,low polyreactivity
7,QVQLVESGGGLVQAGGSLRLSCAASGFIFPWYTMGWYRQAPGKERELVAVINQSGGSTYYADSVKGRFTISRDNAKNPVYLQMNSLKPEDTAVDYCAAKSYYSWGQGTQVTVSS,high polyreactivity
8,QVQLVESGGGLVQAGGSLRLSCAASGFIFPYNAMGWYRQAPGKDRELVAAISWSGSNTYYADSVNGRFTISRDNAMNTVYLQMNSLKPEDTAVYYCAARHSVYYFVQRNGRYGYWGQGTQVTVSW,high polyreactivity
9,QVQLVESGGGLVQAGGSLRLSCAASGFIFPYNAMGWYRQAPGKERELVAGITSSGGGTYYADSVKGRFTISRDNAKNTVYLQMNSLKPEDTAVYYCNKVWSYHLYPYDYWGQGTQVTVSS,high polyreactivity
10,QVQLVESGGGLVQAGGSLRLSCAASGFIFPYNAMGWYRQAPGKERELVAVISSSGGDTYYADSVKGRFTISRDNAKNTVYLQMNSLKPEDTAVYYCAADSYYGYEYWGQGTQVTVSS,low polyreactivity
11,QVQLVESGGGLVQAGGSLRLSCAASGFIFPYYAMGWYRPAPGKERELVAAITSSGGSTYYADSVKGRFTISRDNAKNTVYLQMNSLKPEDTAVYYFNAYVRRTRVYDYWGQGTLVTVSS,high polyreactivity
12,QVQLVESGGGLVQAGGSLRLSCAASGFIFPYYAMGWYRQAPGKERELVAAITSSGGSTYYADSVKGRFTISRDTAKNTVYLQMTSLKPEDNAVYYCNAYVRRTRDYDYWGQGTQVTVSS,high polyreactivity
13,QVQLVESGGGLVQAGGSLRLSCAASGFIFQANAMGWYRQAHGKERELVAAIRSGDRTYYADSVKGRFTISRDNAKNTVYLQMNSLKPEDTAVYYCAAFYHHYYRYDYWGQGTQVTVSS,low polyreactivity
14,QVQLVESGGGLVQAGGSLRLSCAASGFIFQAYAMGWYRQAPGKERELVASISYSGSRTYYADSVKGRFTISRDNAKNTVYLQMNSLKPEDTAVYYCAAGPRYWAPWFGRDYEYWGQGTQVTVSS,high polyreactivity
15,QVQLVESGGGLVQAGGSLRLSCAASGFIFQGYVMGWYRQAPGKEREFVAAISRSGGTTFYADSVKGRFTISRDNAKNTVYLQMNSLKPEDTAVYYCNRARLGRPGYDYWGQGTQVTVSS,high polyreactivity
16,QVQLVESGGGLVQAGGSLRLSCAASGFIFQRNAMGWYRQAPGKERELVAAISWTGGSTYYADSVKGRFTISRDNAKNTVYLQMNSLKPDVTAVYYCAKYGSGPYGYWGQGTQVTVSS,high polyreactivity
17,QVQLVESGGGLVQAGGSLRLSCAASGFIFRAYAKRWYRPAPGKERELFAALTKRSGTTYSADSVKRRFTISRDNAKNTVYVQMNSLKPEDTAVYFCAAKTLYNSGTQDRAMGYWGQGTQVTVSS,high polyreactivity
18,QVQLVESGGGLVQAGGSLRLSCAASGFIFRDNAMGWYRQAPGKERELVAAISKSGGRTYYADSVKGRFTISRDNAKNTVYLLMNSLKPEDTAVYYCAADTYYNLGNYWGQGTQVTVSS,high polyreactivity
19,QVQLVESGGGLVQAGGSLRLSCAASGFIFRDNAMGWYRQAPGKERELVAASSSRGGSTYYADSVKGRFTISRDNAKNTVYLQMNSLKPEDTAVYYCAKRPYKYRVQLDSWGPGTQVTVSS,high polyreactivity
20,QVQLVESGGGLVQAGGSLRLSCAASGFIFRFNAMGWYRQAPGKERELVAGITWSGGSTYYADSVKGRFTISRDNAKNTVYLQMNSLKPEDTAVYYCAADNPYLGRKFDYWGQGTQVTVSS,high polyreactivity
21,QVQLVESGGGLVQAGGSLRLSCAASGFIFRGNGMGWYRQAPGNERELVAAISKSGGRTYYADSVKGRFTISRDNAKNTVYLQMNSLKPEDTAVYYCNARRFWRGDYWGQGTQVTVSS,high polyreactivity

# From the nanobody polyreactivity screen of Harvey et al. (2022)
